B1: GvpJ wild type with CGFP fused at the C-terminus [Halobacterium salinarum] / GvpL with NGFP fused at the N-terminus [Halobacterium salinarum] (parent complex)
chain 1: MSDPKPTRSQGDLAEMLEMLLDKGVVVNADIAVSVGDTELLGIELRAAIASFETAAEYGLEFPTGTDMERVESAANISPDQSDPASETQSETESTNPLSDDSTPTASTSAEETK
chain 2: MTDHRPSPEEEQTTANEERTVSNGRYLYCVVDTTSSESATLSTTGVDDNPVYVVEADGVGAVVHDCETVYETEDLEQVKRWLVTHQQVVDAASDAFGTPLPMRFDTVLEGGDASIERWLEDHYEGFRDELASFAGVWEYRINLLWDSAPFEETIADRDDRLRELRQRQQQSGAGKKFLLEKQSDQRLQELKRERRTELADQLKEAITPVVNDLTEQDTNTPLQDEHSSIEKEQIVRFAVLADEDDETALGDRLDTIVEHEGVEIRFTGPWPPYTFAPDIGK
B2: Fragment M1–25 of GvpM with NGFP fused at the C-terminus [Halobacterium salinarum] / GvpL with CGFP fused at the C-terminus [Halobacterium salinarum] (parent complex)
chain 1: MEPTKDETHAIVEFVDVLLRDGAVI
chain 2: B1 chain 2
B3: GvpM wild type, entire protein, with CGFP fused at the C-terminus [Halobacterium salinarum] / GvpL with NGFP fused at the N-terminus [Halobacterium salinarum] (parent complex)
chain 1: MEPTKDETHAIVEFVDVLLRDGAVIQADVIVTVADIPLIGISLRAAIAGMTTMTEYGLFEEWDAAHRQQSEAFTTSPTADRRED
chain 2: B1 chain 2

Variants of: B1
Assay: split-GFP; Hfx. volcanii transformants; parent: 13; read off a plot

Variant | response
chain 1 MSDPKPTRSQGDLAEMLQMLLDKGVVVNADIAVSVGDTELLGIELRAAIASFETAAEYGLEFPTGTDMERVESAANISPDQSDPASETQSETESTNPLSDDSTPTASTSAEETK | ~9
chain 1 MSDPKPTRSQGDLAEMLRMLLDKGVVVNADIAVSVGDTELLGIELRAAIASFETAAEYGLEFPTGTDMERVESAANISPDQSDPASETQSETESTNPLSDDSTPTASTSAEETK | ~9.2
chain 1 MSDPKPTRSQGDLAEMLEMLLNKGVVVNADIAVSVGDTELLGIELRAAIASFETAAEYGLEFPTGTDMERVESAANISPDQSDPASETQSETESTNPLSDDSTPTASTSAEETK | ~14
chain 1 MSDPKPTRSQGDLAEMLEMLLDKGVVVNADIAVSVGDTELLGIELRDAIASFETAAEYGLEFPTGTDMERVESAANISPDQSDPASETQSETESTNPLSDDSTPTASTSAEETK | ~22
chain 1 MSDPKPTRSQGDLAEMLEMLLDKGVVVNADIAVSVGDTELLGIELRAAIASFETAAEYGLEFPTGTDMARVESAANISPDQSDPASETQSETESTNPLSDDSTPTASTSAEETK | ~14
chain 1 MSDPKPTRSQGDLAEMLAMLLDKGVVVNADIAVSVGDTELLGIELRAAIASFETAAEYGLEFPTGTDMERVESAANISPDQSDPASETQSETESTNPLSDDSTPTASTSAEETK | ~9.5
chain 1 MSDPKPTRSQGDLAEMLEMLLDKGVVVNADIAVSVGDTELLGIELRAAIDSFETAAEYGLEFPTGTDMERVESAANISPDQSDPASETQSETESTNPLSDDSTPTASTSAEETK | ~17
chain 1 MSDPKPTRSQGDLAAMLEMLLDKGVVVNADIAVSVGDTELLGIELRAAIASFETAAEYGLEFPTGTDMERVESAANISPDQSDPASETQSETESTNPLSDDSTPTASTSAEETK | ~9.5
chain 1 MSDPKPTRSQGDLAEMLDMLLDKGVVVNADIAVSVGDTELLGIELRAAIASFETAAEYGLEFPTGTDMERVESAANISPDQSDPASETQSETESTNPLSDDSTPTASTSAEETK | ~14
chain 1 MSDPKPTRSQGDLAEMLEMLLDKGVVVNDDIAVSVGDTELLGIELRAAIASFETAAEYGLEFPTGTDMERVESAANISPDQSDPASETQSETESTNPLSDDSTPTASTSAEETK | ~25
chain 1 MSDPKPTRSQGDLAEMLEMLLDKAVVVNADIAVSVGDTELLGIELRAAIASFETAAEYGLEFPTGTDMERVESAANISPDQSDPASETQSETESTNPLSDDSTPTASTSAEETK | ~7.2

Next, values leading:

response | Variant
~14 | chain 1 MSDPKPTRSQGDLAEMLEMILDKGVVVNADIAVSVGDTELLGIELRAAIASFETAAEYGLEFPTGTDMERVESAANISPDQSDPASETQSETESTNPLSDDSTPTASTSAEETK
~9.3 | chain 1 MSDPKPTRSQGDLAEALEMLLDKGVVVNADIAVSVGDTELLGIELRAAIASFETAAEYGLEFPTGTDMERVESAANISPDQSDPASETQSETESTNPLSDDSTPTASTSAEETK
~18 | chain 1 MSDPKPTRSQGDLAEMLEMLLDKGVVVNADIAASVGDTELLGIELRAAIASFETAAEYGLEFPTGTDMERVESAANISPDQSDPASETQSETESTNPLSDDSTPTASTSAEETK
~18 | chain 1 MSDPKPTRSQGDLAEMLEMLLDKGVVVNADIAVSVGDTELLGIELRAAAASFETAAEYGLEFPTGTDMERVESAANISPDQSDPASETQSETESTNPLSDDSTPTASTSAEETK
~7.8 | chain 1 MSDPKPTRSQGDLAEMLEMLLDKGVVVNADIAVSVGDTELLGIELRAAIASFETAAEEGLEFPTGTDMERVESAANISPDQSDPASETQSETESTNPLSDDSTPTASTSAEETK
~17 | chain 1 MSDPKPTRSQGDLAEMLEMLLDKGVVVNADIAVSVGDTELLGIELRAAIAAFETAAEYGLEFPTGTDMERVESAANISPDQSDPASETQSETESTNPLSDDSTPTASTSAEETK
~14 | chain 1 MSDPKPTRSQGDLAEMLEMLLDAGVVVNADIAVSVGDTELLGIELRAAIASFETAAEYGLEFPTGTDMERVESAANISPDQSDPASETQSETESTNPLSDDSTPTASTSAEETK
~9 | chain 1 MSDPKPTRSQGDLAEMLEMLADKGVVVNADIAVSVGDTELLGIELRAAIASFETAAEYGLEFPTGTDMERVESAANISPDQSDPASETQSETESTNPLSDDSTPTASTSAEETK
~7 | chain 1 MSDPKPTRSQGDLAEMLEELLDKGVVVNADIAVSVGDTELLGIELRAAIASFETAAEYGLEFPTGTDMERVESAANISPDQSDPASETQSETESTNPLSDDSTPTASTSAEETK
~14 | chain 1 MSDPKPTRSQGDLAEMAEMLLDKGVVVNADIAVSVGDTELLGIELRAAIASFETAAEYGLEFPTGTDMERVESAANISPDQSDPASETQSETESTNPLSDDSTPTASTSAEETK
~17 | chain 1 MSDPKPTRSQGDLAEMLEMLLDKGVVVNADIADSVGDTELLGIELRAAIASFETAAEYGLEFPTGTDMERVESAANISPDQSDPASETQSETESTNPLSDDSTPTASTSAEETK
~14 | chain 1 MSDPKPTRSQGDLAEMLEMLLDRGVVVNADIAVSVGDTELLGIELRAAIASFETAAEYGLEFPTGTDMERVESAANISPDQSDPASETQSETESTNPLSDDSTPTASTSAEETK

Variants of: B2
Assay: split-GFP; Hfx. volcanii transformants; parent: 65; read off a plot

Variant | response
chain 1 MEPTKDETHAIVEFVDVLLRAGAVI | ~67
chain 1 MEPTKDETHAIVAFVDVLLRDGAVI | ~61
chain 1 MEPTKDETHDIVEFVDVLLRDGAVI | ~58
chain 1 MEPTKDETHAIVEFVDVLLRDGDVI | ~94
chain 1 MEPTKDETHAIVEAVDVLLRDGAVI | ~57
chain 1 MEPTKDETAAIVEFVDVLLRDGAVI | ~62
chain 1 MEPTKDETHAIVEFVDVLLRDAAVI | ~86
chain 1 MAPTKDETHAIVEFVDVLLRDGAVI | ~67
chain 1 MEPTKDETHAIVEFVAVLLRDGAVI | ~46
chain 1 MEPTKDETHAAVEFVDVLLRDGAVI | ~84
chain 1 MEPTKDKTHAIVEFVDVLLRDGAVI | ~80

Continued, values first:

response | Variant
~81 | chain 1 MEPTKDETHAIVEFVDVLARDGAVI
~110 | chain 1 MEPTKDEAHAIVEFVDVLLRDGAVI
~74 | chain 1 MEPTKDETHAIVEFVDALLRDGAVI
~100 | chain 1 MEPTKDETHAIVEFADVLLRDGAVI
~110 | chain 1 MEPTKDETHADVEFVDVLLRDGAVI
~84 | chain 1 MEATKDETHAIVEFVDVLLRDGAVI
~58 | chain 1 MEPTKDETHAIYEFVDVLLRDGAVI
~74 | chain 1 MEPTKDETHAIVEFVDVLLRDGAAI
~75 | chain 1 MEPTKDETHAIVEFVDVALRDGAVI
~54 | chain 1 MEPTKDETHAIVEFVDVLLADGAVI
~70 | chain 1 MEPAKDETHAIVEFVDVLLRDGAVI

Variants of: B3
Assay: split-GFP; Hfx. volcanii transformants; parent: 7.8; read off a plot

Variant | response
chain 1 MEPTKDETHAIVEFVDVLLRDDAVIQADVIVTVADIPLIGISLRAAIAGMTTMTEYGLFEEWDAAHRQQSEAFTTSPTADRRED | ~9.5
chain 1 MEPTKDETHAIVEFVDVLLRDGAVIQADVIVTVADIPLIGISLRAEIAGMTTMTEYGLFEEWDAAHRQQSEAFTTSPTADRRED | ~5.6
chain 1 MEPTKDETHAIVEFVDVLLRDGAVIQADVIVTVADIPLIGISLREAIAGMTTMTEYGLFEEWDAAHRQQSEAFTTSPTADRRED | ~18
chain 1 MEPTKDETHAIVEFVDVLLRDGDVIQADVIVTVADIPLIGISLRAAIAGMTTMTEYGLFEEWDAAHRQQSEAFTTSPTADRRED | ~9.7

Continued, values first:

response | Variant
~7.1 | chain 1 MEPTKDETHAIVEFVDVLLRDGAVIQADVIVTVADIPLIGISLRAAAAGMTTMTEYGLFEEWDAAHRQQSEAFTTSPTADRRED
~6.4 | chain 1 MEPTKDETHAIVEFEDVLLRDGAVIQADVIVTVADIPLIGISLRAAIAGMTTMTEYGLFEEWDAAHRQQSEAFTTSPTADRRED

— paper PMC8716928 (2021)
